Results on one protein are retold here after article PMC2064962, “Inhibition of Protein Aggregation: Supramolecular Assemblies of Arginine Hold the Key” (PLoS ONE, 2007).

A word on the stoichiometry N: it is the number of molecules, sites or subunits per partner or assembly.

This series concerns the molecule itself. The series is described as follows: SEC; SMART Superdex G75 column, 0.02 M sodium phosphate buffer pH 7.4 (PB), with or without 0.2 M arginine; 10 µg peptide in 50 µl, flow 100 µl/min, monitored at 257 nm; self-association, monomer and tetramer seen.

B1: Mouse Alzheimer's amyloid beta 1-42 peptide (peptide)
peptide: DAEFGHDSGFEVRHQKLVFFAEDVGSNKGAIIGLMVGGVVIA
notes: Amyloid beta 1-42, the cut product of mouse amyloid precursor protein (APP); numbers count on: the Aβ peptide; it was removed; also called Aβ_(1-42); mouse Aβ_(1-42); source: synthetic peptide (Fmoc chemistry, purified on ProRPC C-18); dissolved in 0.01 M NaOH before use
As for B1, the “stoichiometry N” value is 4.
